pKd: −log10 of the molar value. Like-named read-outs stand apart in the source and are kept apart here.
Key:
[1] = target: CXCR4^QTY-Fc (not stated | rabbit); experiment: graphene field-effect transistor array
[2] = target: CXCR4^QTY-Fc (not stated | rabbit); experiment: graphene field-effect transistor array; remark: listed apart in the source

“recombinant HIV coat glycoprotein gp_(41–120)” showed a pKd [1] of 7.72 and a pKd [2] of 8.24.
